# From patent US20230075753A1
# “And” between values parts separate entries of the source, which are not always exact repeats. Equal values may be shown once.
# Columns and labels:
# [1] = target: Active cyno KLK5 (cynomolgus monkey)
# [2] = target: Active human KLK5 (human) (UniProt Q9Y337); assay: cell-based or functional assay
substance,measurement,setting,value
Human LEKTI D5 rabbit Fc fusion protein,IC50 (read off the curve),[1],0.7 nM
same,"Hu KLK5 IC50, inhibition of protease activity (Boc-VPR-AMC) (not printed (M by Table 2))",[2],1.03e-10 and 7.44e-11
same,"IC50 (M), inhibition of kallikrein protease activity (fluorogenic peptide substrate)",[2],1.03e-10 M
